Substitutions are numbered along the chain they refer to. Numbers in names are those of the source. Square brackets hold non-standard residues; d marks the D form. pGlu = O=C1CC[C@@H](C(=O)O)N1
T1: pE3-16 (Pyr-…-biotin) (human)
T1 construct: also called pE3-16B
T1 peptide: [pGlu]FRHDSGYEVHHQK-biotin

B1: Antibody II (R17L) (antibody, human IgG1, kappa, V domains shown)
VH: QVQLVQSGAEVKKPGSSVKVSCKASGYTFTRYYINWVRQAPGQGLEWMGWINPGSGNTKYNEKFKGRVTITADESTSTAYMELSSLRSEDTAVYYCAREGTTVYWGQGTTVTVSS
VL: DIVMTQTPLSLSVTPGQPASISCKSSQSLLYSRGKTYLNWLLQKPGQSPQLLIYAVSKLDSGVPDRFSGSGSGTDFTLKISRVEAEDVGVYYCVQGTHYPFTFGQGTKLEIKR
notes: Human engineered anti-N3pGlu Aβ monoclonal antibody
B2: Antibody VII (mE8c) (antibody, mouse IgG2a, kappa, V domains shown)
VH: EVQLLESGPELVKPGASVKISCKASGYTFTDYYINWVKQRPGQGLEWIGWINPGSGNTKYNEKFKGKATLTVDTSSSTAYMQLSSLTSEDSAVYFCTREGETVYWGQGTTLTVSS
VL: B1 VL with D1N, M4L, S10T, P15I, K44R, Q50K, L51R, S68I, V88L, Q105S
notes: Mouse IgG2a isotype of the mE8 clone; also called mE8c - IgG2a; parental mouse antibody
B3: Antibody I (B12L) (antibody, human IgG1, kappa, V domains shown)
VH: B1 VH with T28D, T101I
VL: B1 VL
notes: as for B1

Target: T1, pE3-16 (Pyr-…-biotin)
Test: SPR (BIACORE 2000), antibody captured, peptide injected
B1: binds. B2: binds. B3: binds.

These binders were tested against T2, Aβ1-40 (UniProt P05067 672-711) in the same assay as above.
T2 construct: domain: Aβ1-40; The numbers 1-40 count on the Aβ peptide, not on the APP precursor
T2 sequence (P05067 672-711 limits assumed): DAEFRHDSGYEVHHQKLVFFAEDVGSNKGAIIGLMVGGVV
B1: no binding. B2: no binding. B3: no binding.
